Values quoted from earlier work as cited in paper PMC9739371, “Deciphering the Binding of the Nuclear Localization Sequence of Myc Protein to the Nuclear Carrier Importin α3” (International Journal of Molecular Sciences, 2022).

Molecular target: NLS-Myc (GFP fusion) NLS (Homo sapiens) (UniProt P01106)
Sequence (P01106 whole entry, looked up, the tested form may be a part): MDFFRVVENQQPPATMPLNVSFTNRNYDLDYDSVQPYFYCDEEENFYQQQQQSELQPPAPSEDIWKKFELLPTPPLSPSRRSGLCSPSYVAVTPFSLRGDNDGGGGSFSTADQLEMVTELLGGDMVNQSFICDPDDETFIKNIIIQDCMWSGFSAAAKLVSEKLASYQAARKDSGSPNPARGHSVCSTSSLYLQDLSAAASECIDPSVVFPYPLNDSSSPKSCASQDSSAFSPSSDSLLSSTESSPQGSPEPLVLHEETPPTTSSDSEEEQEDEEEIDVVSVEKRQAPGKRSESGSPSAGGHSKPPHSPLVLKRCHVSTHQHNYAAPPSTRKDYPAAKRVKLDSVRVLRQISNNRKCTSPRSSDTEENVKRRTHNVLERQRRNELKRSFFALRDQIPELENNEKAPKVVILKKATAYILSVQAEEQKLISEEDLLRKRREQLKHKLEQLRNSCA

Chain of yeast ΔImpα ΔIBB (Q02821 1-68, stated change not applied): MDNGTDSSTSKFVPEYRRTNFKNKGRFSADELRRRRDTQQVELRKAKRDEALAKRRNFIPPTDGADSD

Kd: 6 nM
Substance: yeast ΔImpα ΔIBB (from UniProt Q02821)
